Common to all, as to settings: protein: recombinant; tags: MBP (pMAL-cRI); only one strand given
The target of series [1] is TCF7L2 HMG box Y337S (MBP fusion) (UniProt Q924A0 327-395, Y337S). Kind of series: EMSA; 50 mM NaCl, 20 mM Tris-HCl (pH not stated), 1 mM DTT, 1 mM MgCl2, 5% glycerol, 1 h at 25 C; 6% native PAGE.
Series [2] addresses TCF7L2 HMG box Y337E (MBP fusion) (UniProt Q924A0 327-395, Y337E). The description is as above.
For series [3], the target named is TCF7L2 HMG box Y337H (MBP fusion) (UniProt Q924A0 327-395, Y337H). The series is described as above.
Sequence of TCF7L2 HMG box Y337H (MBP fusion) (Q924A0 327-395 Y337H): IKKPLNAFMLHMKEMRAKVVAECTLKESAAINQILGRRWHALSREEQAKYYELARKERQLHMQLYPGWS
The target of series [4] is TCF7L2 HMG box WT (MBP fusion) (UniProt Q924A0 327-395). Kind of series: EMSA; dose-dependent; 50 mM NaCl, 20 mM Tris-HCl (pH not stated), 1 mM DTT, 1 mM MgCl2, 5% glycerol, 1 h at 25 C; 6% native PAGE. (In general: Mobility shift assays separate free from complexed probe on a gel.)
Sequence of TCF7L2 HMG box WT (MBP fusion) (Q924A0 327-395): as the sequence (Q924A0 327-395 Y337H) above, with H11Y counted along it
Series [5] has as its target TCF7L2 HMG box Y337F (MBP fusion) (UniProt Q924A0 327-395, Y337F). As to the kind of experiment: EMSA; binding largely retained; 50 mM NaCl, 20 mM Tris-HCl (pH not stated), 1 mM DTT, 1 mM MgCl2, 5% glycerol, 1 h at 25 C; 6% native PAGE.

Sequence of TCF7L2 HMG box Y337S (MBP fusion) (Q924A0 327-395 Y337S): as the sequence (Q924A0 327-395 Y337H) above, with H11S counted along it
Sequence of TCF7L2 HMG box Y337E (MBP fusion) (Q924A0 327-395 Y337E): as the sequence (Q924A0 327-395 Y337H) above, with H11E counted along it
Sequence of TCF7L2 HMG box Y337F (MBP fusion) (Q924A0 327-395 Y337F): as the sequence (Q924A0 327-395 Y337H) above, with H11F counted along it

B1: HMG-binding sequence probe (dsDNA)
DNA 1: TAGACGTAGGGCACCCTTTGAAGCTCTCCCTCGA
DNA 2: TCGAGGGAGAGCTTCAAAGGGTGCCCTACGTCTA
On to B1, for which the binding result in series [1] is “no binding”; in series [2], “no binding”; in series [3] it was “no binding”; in series [4] it was “binds”; in series [5], “binds”.

Source of the values: PMC10208975, “TCF7L2 acts as a molecular switch in midbrain to control mammal vocalization through its DNA binding domain but not transcription activation domain”.
